# Laboratory results from publication PMC8968458.
# Target: p65 (UniProt Q04206)
# Assay: pull-down of SFB-tagged RB-N from cells
# Settings: reference: SFB-RB-N wild type; sites S249,T252
substance,measurement,value
RB N-terminal portion (RB-N) (from UniProt P06400) S249A/T252A,binding against the reference,weaker
